These results are taken from patent US20240132603A1 (HARBOUR BIOMED US, published 2024).

Where two headings read alike, the source gives them in different places.

The target in experiment [1] is T1, human CCR8 (human, UniProt P51685 1-355).
T1 construct: whole, on cells; construct used for the overexpressing cell lines is not described; also called hCCR8
Description: FACS, CHO-K1-hCCR8 cells. The gist of the method: (§1)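 Cells are harvested with pancreatin and brought to 1E6 cells/mL. They then receive anti-CCR8 antibody (5-fold series, top 200 nM, 1 h, 4 °C), washes, secondary antibody (1:1000, 40 min, 4 °C) and FACS analysis.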

Experiment [2] addresses T2, cynomolgus monkey CCR8 (cynomolgus monkey, UniProt G7NYJ2 1-355).
T2 construct: whole, on cells; also called CynoCCR8
Description: FACS on CHO-K1 cells overexpressing cynomolgus monkey CCR8. The method, then:
(§2) Cells overexpressing cynomolgus monkey CCR8, CHO-K1-CynoCCR8, were digested with pancreatin, counted and resuspended to a cell density of 1E6 cells/mL. The cell suspension was added to a 96-well V-bottom plate at 100 μL/well and centrifuged at 300 g for 5 min, and the supernatant was discarded. The anti-CCR8 antibodies provided herein was used as a primary antibody and diluted in a 5-fold gradient with an FACS buffer (DPBS containing 2% FBS) from 200 nM. The diluted primary antibody was added at 100 μL/well to resuspend the cells, and the mixture was incubated at 4° C. for 1 h. The plate was washed twice with DPBS and centrifuged at 300×g for 5 min, and the supernatant was discarded. The secondary antibody diluted in a 1:1000 ratio with an FACS buffer was added at 100 μL/well to suspend the cells, and the mixture was incubated at 4° C. for 40 min. The plate was washed twice with DPBS and centrifuged at 300×g for 5 min, and the supernatant was discarded. DPBS was added at 200 μL/well to suspend the cells, and the mixture was loaded on an FACS machine for analysis.

Experiment [3] has as its target T1, human CCR8. Description: FACS, CHO-K1-hCCR8 cells. The gist of the method: as §1
The source holds these as a separate data set. (Flow cytometry measures light scatter and fluorescence of single cells or particles in a stream.)

The target in experiment [4] is T2, cynomolgus monkey CCR8. Description: FACS, CHO-K1-CynoCCR8 cells. Here is the method:
as §2

In experiment [5] the target is T2, cynomolgus monkey CCR8. Description: FACS, CHO-K1-CynoCCR8 cells. The gist of the method:
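Anti-CCR8 antibodies titrated in 5-fold steps from 200 nM onto 1E6 cells/mL CHO-K1-CynoCCR8 in DPBS/2% FBS, 1 h at 4 °C. Bound antibody detected with 1:1000 secondary antibody, 40 min at 4 °C, then flow cytometry.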
This is another data set of the same source.

Another experiment concerns the target T3, CD147.
T3 construct: also called HEK293-CD147
Description: flow cytometry, HEK293-CD147 cells.

The target in experiment [6] is T4, MMP16 (UniProt P51512 120-607).
T4 construct: whole, on cells; also called HEK293-MMP16
Description: flow cytometry, HEK293-MMP16 cells.

In experiment [7] the target is T5, CD40LG (UniProt P29965 1-261).
T5 construct: whole, on cells; also called HEK293-CD40LG
T5 sequence (looked up): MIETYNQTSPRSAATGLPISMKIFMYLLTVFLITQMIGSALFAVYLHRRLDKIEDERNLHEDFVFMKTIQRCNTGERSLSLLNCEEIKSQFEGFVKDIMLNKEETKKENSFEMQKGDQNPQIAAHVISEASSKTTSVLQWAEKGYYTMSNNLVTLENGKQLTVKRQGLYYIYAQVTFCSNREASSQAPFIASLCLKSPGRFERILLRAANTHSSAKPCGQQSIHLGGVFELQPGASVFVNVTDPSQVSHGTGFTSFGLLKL
Description: flow cytometry, HEK293-CD40LG cells.

In experiment [8] the target is T6, TSPAN4-FLAG (UniProt O14817 1-238, limits assumed).
T6 construct: whole, on cells; order of protein and tag unknown; also called HEK293-TSPAN4; not shown: FLAG tag
T6 sequence (looked up): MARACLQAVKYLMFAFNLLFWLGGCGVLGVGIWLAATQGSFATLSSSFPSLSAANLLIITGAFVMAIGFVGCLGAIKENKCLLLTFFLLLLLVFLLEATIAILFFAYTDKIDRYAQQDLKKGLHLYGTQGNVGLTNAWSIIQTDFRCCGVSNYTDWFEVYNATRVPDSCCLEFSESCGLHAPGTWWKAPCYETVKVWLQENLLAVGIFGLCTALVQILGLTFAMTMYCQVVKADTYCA
Description: flow cytometry, HEK293-TSPAN4 cells.

In experiment [9] the target is T6, TSPAN4-FLAG. Description: flow cytometry, transfected HEK293 cells. From the text: (§3) After that, HEK293 cells were transfected with commercial MMP16 (protein information can be found under Uniprot P51512), CD40LG (protein information can be found under Uniprot P29965), CD147 (protein information can be found under Uniprot P35612), TSPAN4 (protein information can be found under Uniprot 014817), and TSPAN12 (protein information can be found under Uniprot 095859) plasmids for further verification of the binding of PR005565, PR006275 and PR006276 to these proteins. […] However, the binding values of PR005565, PR006275 and PR006276 to MMP16, CD40LG, CD147, TSPAN4 and TSPAN12 after transfection of HEK293 cells were all consistent with the signal values of HEK293 cells themselves. Thus, PR005565, PR006275 and PR006276 had no non-specific binding to MMP16, CD40LG, CD147, TSPAN4 and TSPAN12 proteins (see Table 50).

The target in experiment [10] is T7, TSPAN12-FLAG (UniProt O95859 1-305).
T7 construct: whole, on cells; order of protein and tag unknown; also called HEK293-TSPAN12; not shown: FLAG tag
T7 sequence (looked up): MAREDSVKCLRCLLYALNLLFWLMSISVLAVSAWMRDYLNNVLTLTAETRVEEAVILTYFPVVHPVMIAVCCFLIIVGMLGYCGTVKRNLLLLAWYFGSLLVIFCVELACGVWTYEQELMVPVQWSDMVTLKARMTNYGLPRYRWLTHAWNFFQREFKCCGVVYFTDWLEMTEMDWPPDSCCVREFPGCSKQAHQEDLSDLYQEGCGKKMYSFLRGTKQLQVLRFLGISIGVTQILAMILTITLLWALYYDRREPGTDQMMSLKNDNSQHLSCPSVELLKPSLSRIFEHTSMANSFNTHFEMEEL
Description: flow cytometry, transfected HEK293 cells.
From the text: as §3

Experiment [11] addresses T4, MMP16. Description: flow cytometry, transfected HEK293 cells.
From the text: as §3

Experiment [12] addresses T5, CD40LG. Description: flow cytometry, transfected HEK293 cells.
From the text: as §3

For experiment [13], the target named is T7, TSPAN12-FLAG. Description: flow cytometry, HEK293-TSPAN12 cells.
From the text: as §3

Experiment [14] deals with T1, human CCR8. Description: KinExA, cell line overexpressing human CCR8; human CCR8 cell line. Here is the method:
To 200 mg of PMMA hard beads was added 30 μg of Goat Anti-Human IgG Fc antibody, and the mixture was supplemented with a coating solution to 1.0 mL, with a buffer composition of 1×PBS, pH7.4, to ensure that the beads were completely suspended in the solution. After being spun at room temperature for 2 h, the beads were either allowed to settle naturally or centrifuged briefly at low speed, and the supernatant was removed. 1 mL of blocking buffer (1×PBS, pH7.4, containing 10 mg/mL BSA) was added to ensure that the beads were resuspended in the blocking solution, and the beads were spun at room temperature for 1 h. An appropriate concentration of PR005565, PR006155 or PR006166 was used as the 100% signal value, and PBS blank was used as the background value. The net signal values were detected using 0.5 μg/mL Alexa Fluor® 647 Goat Anti-Human IgG. The cell line overexpressing human or monkey CCR8 was collected by centrifugation at 1500 g for 5 min, washed 2 times with 2 PBS and centrifuged at 350 g. The cells were collected in a 1.5 mL centrifuge tube. 10 mL of 0.2 nM PR005565, PR006155 or PR006166 solution was prepared. The total cells were supplemented with 0.2 nM PR005565, PR006155 or PR006166 solution to 0.82 mL, and diluted in a 2-fold gradient with 0.2 nM PR005565, PR006155 or PR006166 as a buffer. […]

T2 sequence (G7NYJ2 entry or part of it): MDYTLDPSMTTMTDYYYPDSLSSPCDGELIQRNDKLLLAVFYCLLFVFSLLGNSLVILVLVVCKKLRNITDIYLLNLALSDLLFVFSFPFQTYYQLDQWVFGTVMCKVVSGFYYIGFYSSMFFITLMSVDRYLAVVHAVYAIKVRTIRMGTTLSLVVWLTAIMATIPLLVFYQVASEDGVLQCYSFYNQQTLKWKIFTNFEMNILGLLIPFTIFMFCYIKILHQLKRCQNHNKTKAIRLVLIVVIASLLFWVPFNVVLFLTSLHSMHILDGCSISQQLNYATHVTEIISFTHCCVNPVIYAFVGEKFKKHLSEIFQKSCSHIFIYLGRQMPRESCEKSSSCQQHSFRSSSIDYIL
T1 sequence (P51685 whole entry): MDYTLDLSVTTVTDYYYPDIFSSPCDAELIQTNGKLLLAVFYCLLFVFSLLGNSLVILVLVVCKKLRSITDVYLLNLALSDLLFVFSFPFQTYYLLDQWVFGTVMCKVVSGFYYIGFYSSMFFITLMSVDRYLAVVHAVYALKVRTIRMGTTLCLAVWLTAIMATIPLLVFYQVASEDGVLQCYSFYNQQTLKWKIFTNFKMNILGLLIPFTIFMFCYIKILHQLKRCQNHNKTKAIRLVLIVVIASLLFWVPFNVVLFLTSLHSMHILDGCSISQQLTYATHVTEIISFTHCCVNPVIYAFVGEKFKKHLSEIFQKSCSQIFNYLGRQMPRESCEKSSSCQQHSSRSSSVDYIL
T4 sequence (P51512 120-607): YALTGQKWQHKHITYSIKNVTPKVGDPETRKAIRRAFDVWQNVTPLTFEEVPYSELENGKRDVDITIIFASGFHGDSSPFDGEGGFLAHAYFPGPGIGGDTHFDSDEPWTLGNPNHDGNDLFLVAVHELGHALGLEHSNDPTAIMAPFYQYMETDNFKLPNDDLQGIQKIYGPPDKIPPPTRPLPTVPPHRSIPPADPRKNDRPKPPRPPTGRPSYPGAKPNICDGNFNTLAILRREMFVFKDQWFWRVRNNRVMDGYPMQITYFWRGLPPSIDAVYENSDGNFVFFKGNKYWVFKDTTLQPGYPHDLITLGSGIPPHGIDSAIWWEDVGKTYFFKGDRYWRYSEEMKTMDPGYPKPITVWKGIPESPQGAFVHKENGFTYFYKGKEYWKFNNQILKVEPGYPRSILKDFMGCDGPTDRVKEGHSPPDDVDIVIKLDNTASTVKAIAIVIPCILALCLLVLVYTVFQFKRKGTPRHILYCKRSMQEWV

B1: PR004342 (antibody, human IgG1, kappa, V domains shown)
VH: EVQLVESGGGLVQPKGSLKLSCAASGFTFNTYAMNWVRQAPGKGLEWVARIRSKSNNYATYYADSVKDRFTISRDDSQSMLYLQMNNLKTEDTAMYYCVRGKENGNYYAMDFWGQGTSVTVSA
VL: DIVMTQSPLSLPVTPGEPASISCRSSKSLLHSNGNTYLYWFLQKPGQSPQLLIYRMSNLASGVPDRFSGSGSGTDFTLKISRVEAEDVGVYYCMQHLEYPFTFGQGTKLEIKR
Broadly, the EC50 is the concentration needed to bring the measured effect to its halfway point. Take B1: in the experiment with human CCR8 [1], a half-maximal response (EC50) required 0.8 nM. Also, the binding result in the experiment with cynomolgus monkey CCR8 [2] is given as “no binding (tested: 200 nM)”.

B2: PR004346 (antibody, human IgG1, kappa, V domains shown)
VH: EVQLVESGGGLVQPKGSLKLSCAASGFTFNTYAMNWVRQAPGKGLEWVARIRSKSNNYATYYADSVKDRFTISRDDSQSMLYLQMNNLKTEDTAMYYCVRGKENGNYYAMDFWGQGTSVTVSA
VL: DIVMTQSPLSLPVTLGQPASISCRSSKSLLHSNGNTYLYWFQQRPGQSPRLLIYRMSNLASGVPDRFSGSGSGTDFTLKISRVEAEDVGVYYCMQHLEYPFTFGQGTKLEIKR
On to B2, for which it took 0.91 nM to reach a half-maximal effect with human CCR8 [1] (EC50). Besides, the binding result with cynomolgus monkey CCR8 [2] is “no binding (tested: 200 nM)”.

B3: PR004668 (antibody, human IgG1, kappa)
heavy: not shown
light: DIVMTQSPLSLPVTPGEPASISCRSSKSLLHSNGKIYLYWFLQKPGQSPQLLIYRMSNLASGVPDRFSGSGSGTDFTLKISRVEAEDVGVYYCMQHLEYPLTFGQGTKLEIKRTVAAPSVFIFPPSDEQLKSGTASVVCLLNNFYPREAKVQWKVDNALQSGNSQESVTEQDSKDSTYSLSSTLTLSKADYEKHKVYACEVTHQGLSSPVTKSFNRGEC
notes: humanized; same VH/VL as PR004520, other heavy chain entry
As a reminder, the EC50 (read off the curve) is the concentration needed to bring the measured effect to its halfway point. For B3, the EC50 came to 0.62 nM with human CCR8 [3] and 1.88 nM in the experiment with cynomolgus monkey CCR8 [4]. For the same molecule, the “EC50 (read off the curve)” value with cynomolgus monkey CCR8 [2] was around 2 nM.

B4: PR006276 (antibody, human IgG1, kappa)
heavy: not shown
light: DIVMTQSPLSLPVTLGQPASISCRSSKSLLHSNAKIYLYWFQQRPGQSPRLLIYRMSNLASGVPDRFSGSGSGTDFTLKISRVEAEDVGVYYCMQHLEYPLTFGQGTKLEIKRTVAAPSVFIFPPSDEQLKSGTASVVCLLNNFYPREAKVQWKVDNALQSGNSQESVTEQDSKDSTYSLSSTLTLSKADYEKHKVYACEVTHQGLSSPVTKSFNRGEC
Regarding B4, the values for the EC50 with human CCR8 [3] and with cynomolgus monkey CCR8 [5] were 0.4 nM and 0.51 nM, respectively. Also, the MFI with CD147 came to 152; in the experiment with MMP16 [6] it was 160; with CD40LG [7], 152; with TSPAN4-FLAG [8], 203; in the experiment with TSPAN12-FLAG [13], 185. Besides, the binding result in the experiment with TSPAN4-FLAG [9], in the experiment with TSPAN12-FLAG [10], with MMP16 [11] and with CD40LG [12] was “no binding” throughout.

B5: PR006275 (antibody, human IgG1, kappa)
heavy: not shown
light: DIVMTQSPLSLPVTLGQPASISCRSSKSLLHSNAKIYLYWFQQRPGQSPRLLIYRMSNLASGVPDRFSGSGSGTDFTLKISRVEAEDVGVYYCMQHLEYPLTFGQGTKLEIKRTVAAPSVFIFPPSDEQLKSGTASVVCLLNNFYPREAKVQWKVDNALQSGNSQESVTEQDSKDSTYSLSSTLTLSKADYEKHKVYACEVTHQGLSSPVTKSFNRGEC
Turning to B5, the values for the EC50 with human CCR8 [3] and with cynomolgus monkey CCR8 [5] were 0.38 nM and 0.47 nM, respectively. Also, the MFI stood at 362 with CD147; 204 in the experiment with MMP16 [6]; 352 in the experiment with CD40LG [7]; 424 with TSPAN4-FLAG [8]; 398 with TSPAN12-FLAG [13]. Further, the binding result in the experiment with TSPAN4-FLAG [9], with TSPAN12-FLAG [10], with MMP16 [11] and with CD40LG [12] was “no binding” throughout.

B6: PR006155 (antibody, human IgG1, kappa)
heavy: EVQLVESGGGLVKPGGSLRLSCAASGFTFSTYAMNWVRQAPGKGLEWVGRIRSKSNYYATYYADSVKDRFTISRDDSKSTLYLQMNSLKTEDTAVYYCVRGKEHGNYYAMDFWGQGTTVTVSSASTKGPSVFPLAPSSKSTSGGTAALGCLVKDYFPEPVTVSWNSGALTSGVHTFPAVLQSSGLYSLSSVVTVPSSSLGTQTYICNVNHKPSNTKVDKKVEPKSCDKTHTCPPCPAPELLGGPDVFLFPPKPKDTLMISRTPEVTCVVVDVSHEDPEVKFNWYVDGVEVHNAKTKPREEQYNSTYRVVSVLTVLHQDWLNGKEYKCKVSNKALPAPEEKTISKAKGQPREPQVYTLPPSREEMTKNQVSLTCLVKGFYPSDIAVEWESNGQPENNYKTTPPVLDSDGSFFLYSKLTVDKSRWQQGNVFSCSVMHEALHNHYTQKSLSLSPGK
light: DIVMTQSPLSLPVTLGQPASISCRSSKSLLHSNAKIYLYWFQQRPGQSPRLLIYRMSNLASGVPDRFSGSGSGTDFTLKISRVEAEDVGVYYCMQHLEYPLTFGQGTKLEIKRTVAAPSVFIFPPSDEQLKSGTASVVCLLNNFYPREAKVQWKVDNALQSGNSQESVTEQDSKDSTYSLSSTLTLSKADYEKHKVYACEVTHQGLSSPVTKSFNRGEC
The Kd is the equilibrium constant for the complex coming apart. As for B6, the EC50 in the experiment with human CCR8 [3] was determined as 0.38 nM; in the experiment with cynomolgus monkey CCR8 [5], 0.39 nM. In addition, binding in the experiment with human CCR8 [14] was put at a Kd of 0.0214 nM.
